Results from patent US8609413B2, “Neurons, astrocytes and oligodendrocytes differentiated from a mammalian pluripotent or neural stem cells exposed to a pyridine deriviative” (Research Development Foundation, priority 2007, dated 2013).

Tested on: human ESC-derived NPC / ESC aggregates
Experiment: Air/liquid interface three-dimensional culture with added factors
Format: cell-based
Conditions: exogenously added factor
From the text: Air/liquid interface expansion/differentiation of NPC may be performed via the following protocol. One or more rosettes-enriched clusters may be manually removed and multiple clusters (e.g., about 5-10 clusters) may be plated on a hydrophilic polytetrafluoroethylene (PTFE) membrane (e.g., 6 mm diameter, 0.4 μm, BioCell-Interface, La Chaux-de-Fonds, Switzerland). This membrane may be deposited on a Millicell®-CM (0.4 μm) Culture Plate Insert (Millipore) (FIG. 5A). N2 medium may preferably be added (e.g., about 1 ml) underneath the membrane insert.
Air/liquid interface expansion/differentiation of NPC. Rosettes-enriched cluster were manually removed and 5-10 clusters were plated on a hydrophilic polytetrafluoroethylene (PTFE) membrane (6 mm diameter, 0.4 μm, BioCell-Interface, La Chaux-de-Fonds, Switzerland). This membrane was deposited on a Millicell®-CM (0.4 μm) Culture Plate Insert (Millipore) (FIG. 1). One ml of N2 medium was added underneath the membrane insert.

B1: Noggin: a polypeptide playing a key role in neural induction (protein, UniProt Q13253 28-232, looked up)
Noggin: QHYLHIRPAPSDNLPLVDLIEHPDPIFDPKEKDLNETLLRSLLGGHYDPGFMATSPPEDRPGGGGGAAGGAEDLAELDQLLRQRPSGAMPSEIKGLEFSEGLAQGKKQRLSKKLRRKLQMWLWSQTFCPVLYAWNDLGSRFWPRYVKVGSCFSKRSCSVPEGMVCKPSKSVHLTVLRWRCQRRGGQRCGWIPIQYPIISECKCSC
  phenotype of engineered tissue: had no influence on the self-organization and phenotype
